Results as given in paper PMC11241375, “In Silico Screening of Bioactive Peptides in Stout Beer and Analysis of ACE Inhibitory Activity” (Foods, 2024).
Read-outs that look alike come from different tables or passages of the source. No end group written: not given here.

Assays:
ACE [1] = biological target: T1, ACE (Homo sapiens, UniProt P12821); conditions: cited from earlier work
T1 construct: purchased Sigma-Aldrich
Source text: Recently, several ACEI peptides have been identified and evaluated in brewed wine. Wu et al. discovered a polypeptide in Chinese Baijiu for the first time, which indicated an ACE inhibitory effect with an IC50 of […] [11]. […] Beer is one of the most globally cons ... || In this study, peptides in stout beer were identified using UPLC-Q-Orbitrap-MS^2, and a total of 41 peptides with ALC ≥ 85% were selected (Table 1). The peptides PMAPLPRSGPE and […] from Italian beer, LPQQQAQFK, STEWHLD, PPPVHD, LVLPGELAK, LAVMQQQQQQ, PPPVHDTD, PPVPHDTD, LPEDAKVE, HAVSEGTKAVT, LPGELAK, PMAPLPRSGEP, TVSGF, LNFDPNR, LALDTRVG, LDTRVGV, and RVALVY from draft beer, which were previously identified, also appeared in our results. The polypeptides present in beer primarily originate from malt protein. Previous studies have shown that the soluble protein content in m ...

ACE [2] = biological target: T1, ACE; assay: ACEI activity in vitro (ACE activity assay kit); assay type: biochemical; conditions: 10 μL ACE + 40 μL inhibitor + 50 μL substrate, fluorescence ex 320 nm/em 405 nm, 37 °C, 30 min, synthesized peptide, triplicate, mean ± SD
Protocol: ACEI activity determination was determined using an assay kit. Briefly, 10 μL of ACE and 40 μL of the inhibitor were added to the microplate and mixed thoroughly, then 50 μL of the substrate was added to start the reaction. The fluorescence was detected at an excitation wavelength of 320 nm and an emission wavelength of 405 nm at 37 °C for 30 min. The ACE activity of the peptide was calculated as follows:ACEI activity = [(KStd − KSample)/KStd] × DF × 100% where KSample means the slope of the sample curve after subtracting the blank. (RFU/min); KStd means the slope of the standard curve after subtracting the blank (RFU/min); DF means the dilution factor.
Each experiment was conducted in triplicate, the data were presented as mean ± standard deviation. SYBYL-X 2.1.1 software was utilized for evaluating the molecular docking visualization. LigPlot 1.4.5 software was employed to illustrate the 2D interactions. MD simulation data analysis was performed using GROMACS 2022.3 software.

[3] = peptides identified from Qingke Baijiu
[4] = known ACEI peptides in BIOPEP/AHTPDB

T1 sequence (P12821 30-1306, species assumed): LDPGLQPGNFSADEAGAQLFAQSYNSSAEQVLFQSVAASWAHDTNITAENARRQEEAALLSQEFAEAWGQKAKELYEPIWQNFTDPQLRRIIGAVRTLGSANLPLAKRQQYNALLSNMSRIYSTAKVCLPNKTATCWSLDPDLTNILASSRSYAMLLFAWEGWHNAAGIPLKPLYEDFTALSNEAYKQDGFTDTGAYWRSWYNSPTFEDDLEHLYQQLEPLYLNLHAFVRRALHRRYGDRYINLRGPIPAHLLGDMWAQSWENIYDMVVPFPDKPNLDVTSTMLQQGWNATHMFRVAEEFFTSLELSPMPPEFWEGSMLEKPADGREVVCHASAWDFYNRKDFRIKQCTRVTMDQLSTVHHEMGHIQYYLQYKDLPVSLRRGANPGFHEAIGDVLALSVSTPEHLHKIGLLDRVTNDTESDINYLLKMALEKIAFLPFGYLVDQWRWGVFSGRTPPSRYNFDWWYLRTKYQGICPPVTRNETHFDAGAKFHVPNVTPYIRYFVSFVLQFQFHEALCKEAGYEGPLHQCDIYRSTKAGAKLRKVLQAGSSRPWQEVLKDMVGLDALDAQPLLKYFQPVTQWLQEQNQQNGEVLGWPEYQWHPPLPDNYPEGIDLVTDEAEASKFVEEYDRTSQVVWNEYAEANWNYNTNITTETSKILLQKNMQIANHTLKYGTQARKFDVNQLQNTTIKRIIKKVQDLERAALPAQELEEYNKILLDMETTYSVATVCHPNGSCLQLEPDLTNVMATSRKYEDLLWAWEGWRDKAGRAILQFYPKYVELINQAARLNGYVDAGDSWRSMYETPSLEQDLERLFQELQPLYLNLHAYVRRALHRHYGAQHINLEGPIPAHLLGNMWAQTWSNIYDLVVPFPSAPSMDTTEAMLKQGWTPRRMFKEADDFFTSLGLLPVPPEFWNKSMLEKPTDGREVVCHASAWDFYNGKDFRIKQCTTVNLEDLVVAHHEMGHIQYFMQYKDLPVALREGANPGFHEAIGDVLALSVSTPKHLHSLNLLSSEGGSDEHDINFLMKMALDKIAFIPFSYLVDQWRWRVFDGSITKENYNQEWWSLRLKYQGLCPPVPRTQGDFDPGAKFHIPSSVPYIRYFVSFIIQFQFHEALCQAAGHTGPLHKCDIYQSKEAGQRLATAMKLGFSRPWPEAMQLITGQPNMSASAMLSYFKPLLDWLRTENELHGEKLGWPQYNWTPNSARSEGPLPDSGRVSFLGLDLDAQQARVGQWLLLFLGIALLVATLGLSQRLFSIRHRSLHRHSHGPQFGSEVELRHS

Row | Substance | IC50 (ACE [1]; [3]) [µM] | IC50 (ACE [1]; [4]) [µM] | also measured
1 | LPVGP [peptide from Qingke Baijiu, reference compound] | 9.05 |  | 
2 | LNFDPNR [peptide of stout beer; already known ACEI peptide] |  | 38.6 | 
3 | FPLQPHQP [peptide from Qingke Baijiu, reference compound] | 5.03 |  | 
4 | LPQQQAQFK [peptide of stout beer; already known ACEI peptide] |  | 26.4 | 
5 | DLGGFFGFQR [DLGGFFGFQR] |  |  | IC50 (ACE [2]): 24.5 µM
